Reference: the supplement of paper PMC10567573

B1: VPS39 (parent)
chain: ITEEKVCMVCKKKIGNSAFARYPN
B2: ZNF277 (parent)
chain: ILREELQKQRLREILEQQQQERND

Variants of: B1
Test: protein stability index of a GFP-peptide fusion (GPS, HEK-293T) (PSI 1-6); higher = more stable
Settings: c terminus: a fixed tail appended
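Note: lentivirally expressed fusions sorted by FACS into six bins by GFP to DsRed ratio, PSI derived from sequencing read proportions per bin multiplied by bin number.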

Protein stability index, by site and new letter:
I14: G 2.3 | F 2.87 | E 2.85 | N 2.38 | K 2.49 | A 2.56 | V 1.79 | Y 2.66 | L 2.41 | M 3 | D 3.48 | W 2.1 | Q 2.14 | C 2.5 | R 2.67 | P 2.64 | T 3.06 | S 3.36 | H 4.23
Y22: G 2.64 | P 2.65 | Q 2.77 | H 2.77 | K 2.82 | F 2.31 | E 3.55 | T 2.95 | D 3.12 | C 2.98 | R 2.35 | S 2.81 | V 2.38 | L 2.22 | I 2.39 | M 2.9 | A 2.57 | N 2.72 | W 1.63
N16: F 1.58 | C 2.8 | R 2.29 | A 2.42 | E 2.48 | H 2.48 | I 2.02 | T 2.77 | G 3.01 | L 2.05 | W 2.08 | D 2.62 | V 2.37 | P 2.81 | Q 3.01 | K 2.34 | Y 2.1 | S 2.35 | M 1.54
S17: M 2.3 | W 2.14 | A 2.19 | I 3.04 | L 2.07 | D 2.78 | Q 3.1 | C 2.67 | H 2.54 | P 2.47 | Y 2.08 | G 2.52 | V 3.12 | K 2.1 | F 2.18 | T 2.11 | E 3.4 | N 2.17 | R 2.62
F19: A 3.58 | S 2.56 | Q 3.58 | E 3.62 | C 3.52 | M 2.39 | W 2.34 | I 2.82 | R 2.91 | T 3.58 | H 2.89 | G 3.29 | L 2.28 | D 4.58 | Y 3.06 | V 3.27 | N 2.69 | P 3.14 | K 3.55
P23: F 1.76 | V 4.25 | H 2.04 | Q 2.26 | R 2.49 | W 1.75 | N 2.32 | K 2.13 | T 2.13 | C 2.8 | I 2.63 | Y 1.74 | S 2.56 | D 3.19 | M 1.78 | E 3.38 | G 2.7 | A 2.38 | L 2.57
K12: A 2.28 | Q 2.25 | R 1.83 | P 2.25 | E 2.46 | T 1.77 | G 1.97 | S 2.36 | L 1.3 | C 2.93 | F 1.68 | D 2.63 | Y 1.88 | V 1.74 | N 2.8 | W 2.18 | M 1.64 | H 2.28
K11: I 1.85 | D 3.21 | M 1.66 | T 2.2 | A 2.19 | S 1.7 | C 1.42 | L 1.42 | Q 2.29 | Y 2.12 | P 2.76 | R 1.98 | G 2.58 | W 1.69 | H 1.74 | V 2.23 | E 2.75 | N 1.81 | F 1.54
N24: P 2.37 | D 2.6 | G 1.77 | M 2.06 | T 2.88 | K 2.24 | V 1.65 | S 2.18 | W 1.93 | E 2.05 | H 2.36 | F 1.85 | I 1.86 | L 2.27 | A 2.11 | Y 2.39 | Q 2.52 | C 2.34
M8: Y 1.94 | A 2.91 | W 1.51 | G 2.64 | D 2.95 | N 2.92 | V 3.23 | I 2.6 | P 2.64 | S 3.29 | T 2.43 | K 3.11 | L 2.65 | H 2.31 | C 2.44 | E 2.85 | Q 3.22 | R 2.39 | F 3.02
K13: I 2.02 | Y 2.11 | S 2.36 | A 1.7 | C 2.01 | M 2.07 | N 2.33 | F 2.28 | D 2.73 | Q 2.6 | L 1.64 | E 3.04 | H 2.01 | V 1.98 | G 1.35 | W 1.52 | P 2.27 | R 2.29 | T 1.83
A20: V 2.38 | H 2.38 | M 2.43 | G 2.05 | S 3.16 | K 2.26 | N 2.32 | T 2.73 | R 2.62 | Q 2.74 | I 3.49 | L 2.09 | W 2.16 | C 2.56 | E 2.11 | F 2.34 | Y 2.31 | D 2.62 | P 2.62
C10: F 2.04 | Y 2.64 | H 3.32 | M 2.94 | N 4.14 | E 4.15 | I 2.45 | A 3.13 | L 2.38 | R 3.96 | P 3.97 | V 2.84 | S 4.14 | W 2.59 | K 2.77 | G 4.21 | D 3.67
A18: D 3.65 | Y 1.89 | P 2.19 | R 2.26 | I 1.81 | V 2 | F 2.15 | K 2.4 | M 2.34 | G 3.02 | E 3.2 | H 2.73 | L 2.4 | T 2.52 | W 2.08 | S 3.04 | N 2.99 | C 2.37 | Q 2.41
G15: K 2.55 | N 2.37 | W 2.35 | I 2.8 | L 2.31 | R 2.34 | Y 2 | P 2.45 | S 2.54 | F 2.35 | Q 2.99 | V 2.86 | E 2.78 | A 1.39 | C 2.98 | D 2.46 | M 2.23 | H 2.02 | T 2.81
V9: P 3.59 | W 2.34 | F 2.27 | R 3.61 | A 3.05 | Y 1.99 | K 3.58 | T 2.51 | N 3.33 | Q 3.4 | C 2.67 | I 2.06 | M 2.69 | G 3.1 | H 2.87 | L 2.83 | S 3.35 | E 3.53 | D 2.71
R21: M 2.71 | E 3.15 | T 2.55 | Y 3.13 | Q 2.75 | C 2.5 | V 2.59 | A 2.86 | D 4.02 | P 3.02 | N 2.71 | K 2.77 | I 2.93 | W 1.94 | S 2.58 | H 2.99 | G 2.83 | L 2.45 | F 2.39

Variants of: B2
Test: as above
Settings: c terminus: a fixed tail appended

Protein stability index, by site and new letter:
I1: M 4.66 | K 4.24 | G 4.93 | F 4.43 | C 4.79 | H 4.89 | V 4.4 | P 4.73 | N 4.99 | T 5.08 | W 4.19 | L 4.09 | S 5.12 | E 4.93 | A 4.59
